Measured values reported in patent publication US20040001826A1 (published 2004).

B3: convulxin (Cvx), purified from the venom of Crotalus durissus terrificus (ligand)
chain 1: GLHCPSDWYYYDQHCYRIFNEEMNWEDAEWFCTKQAKGAHLVSIKSAKEADFVAWMVTQNIEESFSHVSIGLRVQNKEKQCSTKWSDGSSVSYDNLLDLYITKCSLLKKETGFRKWFVASCIGKIPFVCKFPPQC
chain 2: GFCCPSHWSSYDRYCYKVFKQEMTWADAEKFCTQQHTGSHLVSFHSTEEVDFVVKMTHQSLKSTFFWIGANNIWNKCNWQWSDGTKPEYKEWHEEFECLISRTFDNQWLSAPCSDTYSFVCKFEA
B4: human TANGO 268 (glycoprotein VI, GPVI) (receptor)
chain: QSGPLPKPSLQALPSSLVPLEKPVTLRCQGPPGVDLYRLEKLSSSRYQDQAVLFIPAMKRSLAGRYRCSYQNGSLWSLPSDQLELVATGVFAKPSLSAQPGPAVSSGGDVTLQCQTRYGFDQFALYKEGDPAPYKNPERWYRASFPIITVTAAHSGTYRCYSFSSRDPYLWSAPSDPLELVVTGTSVTPSRLPTEPPSSVAEFSEATAELTVSFTNKVFTTETSRSITTSPKESDSPAGPARQYYTKGNLVRICLGAVILIILAGFLAEDWHSRRKRLRHRGRAVQRPLPPLPPLPQTRKSHGGQDGGRQDVHSRGLCS
notes: Full-length protein: in lysates of transfected CHO cells and of human platelets (blots), on transduced U937, K562 and HEL cells, and on human platelets; Signal peptide 1-20 is a SIGNALP prediction; also called hGPVI; rhGPVI

What was measured:
[1] = molecular target: B4; test: flow cytometry, washed human platelets, FITC anti-mouse IgG; negative control
[2] = molecular target: baboon GPVI on baboon platelets (baboon); test: flow cytometry, washed baboon platelets, FITC anti-mouse IgG; negative control
[3] = molecular target: soluble human GPVI-Fc (extracellular domain of GPVI fused to human IgG1 Fc) (human) (UniProt Q9HCN6); test: SPR (BIAcore), GPVI-Fc coupled to the chip, bivalent model; negative control
collagen type I = test: cell-based or functional assay
[4] = molecular target: T1, bovine serum albumin (BSA) (UniProt P02769 25-607); test: adhesion of 51Cr-labelled GPVI-transduced FDC-P1 cells to immobilized BSA
T1 construct: Control surface in the cell adhesion assay

[5] = molecular target: B3; test: flow cytometry, FITC-Cvx
[6] = molecular target: T2, mouse collagen (type III) in descending aorta sections (mouse, UniProt P08121 155-1219, limits assumed); test: immunofluorescence on mouse descending aorta sections, anti-human Fc detection
T2 construct: The target is tissue; also called mouse type III collagen; mouse aorta sections
T2 sequence (looked up): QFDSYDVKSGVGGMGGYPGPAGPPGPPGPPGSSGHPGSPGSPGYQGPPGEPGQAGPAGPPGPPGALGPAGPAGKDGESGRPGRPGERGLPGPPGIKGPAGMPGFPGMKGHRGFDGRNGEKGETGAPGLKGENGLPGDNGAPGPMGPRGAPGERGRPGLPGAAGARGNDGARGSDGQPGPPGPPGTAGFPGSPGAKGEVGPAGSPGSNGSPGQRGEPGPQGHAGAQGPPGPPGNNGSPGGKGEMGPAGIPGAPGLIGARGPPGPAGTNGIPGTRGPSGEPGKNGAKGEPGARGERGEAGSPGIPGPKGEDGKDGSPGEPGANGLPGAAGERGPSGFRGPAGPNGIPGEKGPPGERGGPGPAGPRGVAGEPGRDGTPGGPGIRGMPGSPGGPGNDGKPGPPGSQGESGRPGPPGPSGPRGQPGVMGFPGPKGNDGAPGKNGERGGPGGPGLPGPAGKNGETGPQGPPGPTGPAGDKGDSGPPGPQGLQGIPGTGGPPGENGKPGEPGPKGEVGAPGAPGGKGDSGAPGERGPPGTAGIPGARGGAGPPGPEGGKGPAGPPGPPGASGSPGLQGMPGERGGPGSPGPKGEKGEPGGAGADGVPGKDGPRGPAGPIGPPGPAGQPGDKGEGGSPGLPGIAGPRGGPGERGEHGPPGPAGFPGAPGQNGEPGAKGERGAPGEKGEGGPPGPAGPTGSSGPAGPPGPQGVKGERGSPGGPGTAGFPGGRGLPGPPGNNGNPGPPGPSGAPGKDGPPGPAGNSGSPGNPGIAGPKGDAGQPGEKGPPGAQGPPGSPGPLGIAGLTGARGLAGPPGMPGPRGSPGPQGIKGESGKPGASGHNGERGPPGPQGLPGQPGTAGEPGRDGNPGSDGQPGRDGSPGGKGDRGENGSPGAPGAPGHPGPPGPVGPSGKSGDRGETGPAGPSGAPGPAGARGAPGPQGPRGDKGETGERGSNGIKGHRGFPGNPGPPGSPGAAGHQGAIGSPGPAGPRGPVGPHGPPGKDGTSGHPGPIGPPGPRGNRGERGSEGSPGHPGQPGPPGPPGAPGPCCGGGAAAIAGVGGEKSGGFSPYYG
Method: The descending aorta was dissected and postfixed for 1.5 hours in the same fixative at room temperature. […] The descending aorta was then frozen in Tissue Tek OCT (Sakura, Tokyo, Japan). Frozen 12 micrometer cross sections of the descending aorta were cut using a cryostat (Microm, VWR, West Chester, Pa.) onto poly-1-Lysine (3 mg/ml; Sigma) coated Superfrost Plus microscope slides (VWR). Slides were stored at −80° C. until staining.
Slides containing descending aorta sections were placed at 37° C. for 6 minutes and then tissue sections were encircled with the hydrophobic substance contained in a PAP pen (RPI, Mount Prospect, Ill.). Slides were then washed 2 times for 7.5 minutes each in 0.1 M phosphate buffer, pH 6.9 (PB). Sections were then incubated for 1 hour at room temperature in a pool of solution, bordered by the hydrophobic markings, containing a 1:50 dilution of normal donkey serum (Jackson ImmunoResearch Laboratories, Inc., West Grove, Pa.) diluted with PBX. PBX is made by adding 300 microliters of Triton X-100 (Sigma) to 100 ml of 0.1M PB. Slides were than washed three times for 10 minutes each in 0.1M PB. […] Slides were then washed three times for 10 minutes each in 0.1M PB. […] Finally, slides were coverslipped using Vectashield (Vector Laboratories, Burlingame, Calif.) and the sites of GPVI binding to mouse descending aorta sections was observed using a fluorescence microscope.

[7] = molecular target: baboon GPVI on baboon platelets (baboon); test: flow cytometry, washed baboon platelets; positive control
[8] = molecular target: B4
[9] = molecular target: B3; test: ligand blot with 125I-Cvx on lysates of transfected CHO cells and of platelets
[10] = molecular target: T1, bovine serum albumin (BSA); test: adhesion of 51Cr-labelled GPVI-transduced U937 cells to immobilized BSA

T1 sequence (P02769 25-607 limits assumed): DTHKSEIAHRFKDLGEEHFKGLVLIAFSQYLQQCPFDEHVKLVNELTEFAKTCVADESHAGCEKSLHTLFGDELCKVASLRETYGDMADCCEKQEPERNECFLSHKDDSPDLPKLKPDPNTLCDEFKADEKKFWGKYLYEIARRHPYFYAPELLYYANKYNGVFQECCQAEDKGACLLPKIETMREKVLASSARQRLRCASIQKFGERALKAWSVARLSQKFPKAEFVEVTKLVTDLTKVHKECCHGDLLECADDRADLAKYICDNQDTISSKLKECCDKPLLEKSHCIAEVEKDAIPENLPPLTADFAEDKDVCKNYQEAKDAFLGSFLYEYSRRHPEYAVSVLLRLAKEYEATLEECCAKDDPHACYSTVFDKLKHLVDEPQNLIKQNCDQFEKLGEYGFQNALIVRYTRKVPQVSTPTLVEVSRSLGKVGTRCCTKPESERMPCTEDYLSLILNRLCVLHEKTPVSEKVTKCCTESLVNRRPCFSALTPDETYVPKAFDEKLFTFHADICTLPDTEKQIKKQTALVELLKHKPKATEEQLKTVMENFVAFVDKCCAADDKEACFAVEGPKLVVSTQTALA

monoclonal antibody 7120.2 (negative control)
Human fluorescence intensity [1]: 7 | Human platelets % positive [1]: 1.6% | Baboon fluorescence intensity [2]: 10 | Baboon platelets % positive [2]: 9% | Kd [3]: 210 nM

recombinant human soluble GPVI:Fc fusion protein (rhusGPVI:Fc) (from UniProt Q9HCN6 21-269)
concentration of rhusGPVI:Fc needed for inhibition, against that needed for Cvx (collagen type I): 10 fold

monoclonal antibody 7H14.1 (negative control)
Human fluorescence intensity [1]: 7 | Human platelets % positive [1]: 1.4% | Baboon fluorescence intensity [2]: 9 | Baboon platelets % positive [2]: 6.8%

B1: mouse TANGO 268 (murine GPVI) (receptor)
chain: QSGPLPKPSLQAQPSSLVPLGQSVILRCQGPPDVDLYRLEKLKPEKYEDQDFLFIPTMERSNAGRYRCSYQNGSHWSLPSDQLELIATGVYAKPSLSAHPSSAVPQGRDVTLKCQSPYSFDEFVLYKEGDTGPYKRPEKWYRANFPIITVTAAHSGTYRCYSFSSSSPYLWSAPSDPLVLVVTGLSATPSQVPTEESFPVTESSRRPSILPTNKISTTEKPMNITASPEGLSPPIGFAHQHYAKGNLVRICLGATIIIILLGLLAEDWHSRKKCLQHRMRALQRPLPPLPLA
notes: Full-length protein on retrovirally transduced FDC-P1, 32D and Ba/F3 cells; Signal peptide 1-21 is a SIGNALP prediction; also called mGPVI; rmGPVI
binding result [4]: no binding | binding result [5]: binds

B2: human neurotactin conjugated to human Fc (Fc fusion, UniProt P78423 25-341, looked up)
chain: QHHGVTKCNITCSKMTSKIPVALLIHYQQNQASCGKRAIILETRQHRLFCADPKEQWVKDAMQHLDRQAAALTRNGGTFEKQIGEVKPRTTPAAGGMDESVVLEPEATGESSSLEPTPSSQEAQRALGTSPELPTGVTGSSGTRLPPTPKAQDGGPVGTELFRVPPVSTAATWQSSAPHQPGPSLWAEAKTSEAPSTQDPSTQASTASSPAPEENAPSEGQRVWGQGQSPRPENSLEREEMGPVPAHTDAFQDWGPGSMAHVSVVPVSSEGTPSREPVASGSWTPKAEEPIHATMDPQRLGVLITPVPDAQAATRRQ
notes: Negative-control Fc fusion; not shown: human Fc
binding result [6]: no binding

B3
Baboon fluorescence intensity [7]: 72 | Baboon platelets % positive [7]: 95% | IC50 [8]: 4 nM

B4
binding result [9]: binds | binding result [10]: no binding
